Substrate in data set [1]: CCCCCCCC/C=C\CCCCCCCC(=O)OC[C@H](COP(=O)([O-])OCC[N+](C)(C)C)OC(=O)CCCCCCC/C=C\CCCCCCCC
The data set can be described thus: radiochemical PC:MLCL transacylase assay, TLC and scintillation counting, Lineweaver-Burk. Type of data set: biochemical, Mus musculus. As to conditions: labelled compound (3H), acyl donor 0-200 μM, acceptor MLCL 100 μM (methods text: 40 μM final), pH 8, 37 °C, 2 mM DTT, 0.1% Nonidet P-40, enzyme on anti-HA beads, apparent. From the text: (§1) radiochemical PC:MLCL transacylase assay, TLC and scintillation counting, Lineweaver-Burk on PLAAT1

Substrate in data set [2]: CCCCCCCCCCCCCCCCCC(=O)OC[C@H](COP(=O)([O-])OCC[N+](C)(C)C)OC(=O)CCCCCCCCCCCCCCCCC
The data set is described as above. Type of data set: biochemical, Mus musculus. To be noted: labelled compound (3H), acyl donor 0-200 μM, acceptor MLCL 100 μM (methods text: 40 μM final), pH 8, 37 °C, 2 mM DTT, 0.1% Nonidet P-40, enzyme on anti-HA beads, apparent.
Description: as §1

Consider one protein from article PMC9224490, “PLAAT1 Exhibits Phosphatidylcholine:Monolysocardiolipin Transacylase Activity” (International Journal of Molecular Sciences, 2022).

B1: PLAAT1 (Mus musculus) (protein)
chain: MAVNDCFSLTYPHNPHPGDLIEVFRPCYQHWALYLGDGYVINIAPIDGIRSSFTSAKSVFSTKALVKMQLLKDVVGNDTYRINNKYDTTYPPLPVEEVIQRSEFPIGQEVAYDLLVNNCEHFVTLLRYGEGVSEQANRAIGTIGLVAAGIDIFTFLGLFPKRQRTKY
notes: complete coding region; C-terminal 6xHis, HA-tagged; adenoviral expression in HEK-293; immunopurified on anti-HA beads
In the case of B1, in data set [1], the Km (in general, the concentration of substrate that gives half-maximal velocity) was found to be 16 µM and the Vmax (usually the rate approached at saturating substrate) worked out at 0.61 µmol/min/mg. Besides, in data set [2], the Km was 126 µM and the Vmax came to 1.61 µmol/min/mg.
